The text below walks through data of article PMC4072508, “Genome-Wide Prediction and Validation of Peptides That Bind Human Prosurvival Bcl-2 Proteins” (PLoS Computational Biology, 2014).

Several values for one entry are separate records, joined by “and”; a condition that tells them apart may be missing. Identical values can stand only once. A value given as a limit tells only on which side of the number the result lay.

Experiment [1] addresses Bcl-xL (UniProt Q07817). Kind of experiment: peptide SPOT array, c-Myc-tagged receptor at 1 uM or 100 nM, anti-c-Myc-Cy3.
Experiment [2] deals with Mcl-1 (UniProt Q07820). Described as above.
Target sequence in this assay (Q07820 172-327): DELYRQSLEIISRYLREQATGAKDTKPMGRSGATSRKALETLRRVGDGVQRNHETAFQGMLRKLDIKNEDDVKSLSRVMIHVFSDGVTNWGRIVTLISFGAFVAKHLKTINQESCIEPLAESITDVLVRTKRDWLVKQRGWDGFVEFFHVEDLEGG
Experiment [3] addresses Bcl-w (UniProt Q92843). Described as above.
Experiment [4] addresses Bcl-2 (UniProt P10415). The experiment is described as above.
Target sequence in this assay (P10415 1-217): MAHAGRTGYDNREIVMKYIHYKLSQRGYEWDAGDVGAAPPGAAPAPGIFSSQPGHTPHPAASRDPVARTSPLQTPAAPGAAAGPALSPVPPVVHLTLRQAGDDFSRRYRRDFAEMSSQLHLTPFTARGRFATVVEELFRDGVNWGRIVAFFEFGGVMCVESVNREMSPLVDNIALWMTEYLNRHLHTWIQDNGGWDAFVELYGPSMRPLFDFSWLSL
Experiment [5] has as its target Bfl-1 (UniProt Q16548). The description is as above.
Target sequence in this assay (Q16548 1-151): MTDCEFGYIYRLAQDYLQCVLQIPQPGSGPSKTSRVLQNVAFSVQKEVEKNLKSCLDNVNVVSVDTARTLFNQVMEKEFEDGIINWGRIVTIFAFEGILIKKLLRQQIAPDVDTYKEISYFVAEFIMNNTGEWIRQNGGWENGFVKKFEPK
Experiment [6] deals with Mcl-1 (UniProt Q07820). As to conditions: cited from earlier work.
Target sequence in this assay (Q07820 whole entry): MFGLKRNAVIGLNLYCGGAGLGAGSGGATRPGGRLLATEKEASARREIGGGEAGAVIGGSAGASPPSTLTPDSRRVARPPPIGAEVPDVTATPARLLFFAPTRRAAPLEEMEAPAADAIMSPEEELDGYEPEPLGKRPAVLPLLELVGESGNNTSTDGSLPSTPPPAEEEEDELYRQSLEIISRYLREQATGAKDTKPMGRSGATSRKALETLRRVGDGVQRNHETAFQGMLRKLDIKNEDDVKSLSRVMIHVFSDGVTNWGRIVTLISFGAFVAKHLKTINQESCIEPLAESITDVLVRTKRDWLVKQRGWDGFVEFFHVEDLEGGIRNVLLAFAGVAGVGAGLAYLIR
Experiment [7] deals with Bfl-1 (UniProt Q16548). As to conditions: cited from earlier work.
Target sequence in this assay (Q16548 whole entry): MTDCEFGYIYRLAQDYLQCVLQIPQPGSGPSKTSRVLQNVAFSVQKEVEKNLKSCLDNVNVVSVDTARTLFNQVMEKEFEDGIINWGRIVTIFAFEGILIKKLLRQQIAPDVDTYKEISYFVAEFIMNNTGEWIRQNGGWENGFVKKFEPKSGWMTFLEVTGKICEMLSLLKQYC
The target of experiment [8] is PXT1 BH3-like peptide (human). Kind of experiment: fluorescence polarisation; direct binding: 10 nM FAM-labeled peptide, receptor serially diluted; 25°C; 20 mM NaPO4, 50 mM NaCl, 1 mM EDTA, 0.001% Triton X, pH 7.8; single-site binding model. A general note: In fluorescence polarisation assays a small probe gives low polarisation when free and higher when bound to something large.

In experiment [9] the target is peptide based on the putative BH3 motif in Aven (human). Description: peptide or protein array; peptide SPOT arrays on nitrocellulose membranes; 1 µM or 100 nM c-Myc-tagged receptor in TBS (50 mM Tris, pH 8.1, 100 mM NaCl, 0.01% Triton X-100), 1 h, room temperature; detected with anti-c-myc-Cy3; signal given as percent of the Bim BH3 signal.
The target of experiment [10] is Bcl-2 (UniProt P10415). Description: fluorescence polarisation; binding assay in solution; direct or competition not told for this peptide (MRPL41 was unlabeled in Figure S2).
Target sequence in this assay (P10415 whole entry): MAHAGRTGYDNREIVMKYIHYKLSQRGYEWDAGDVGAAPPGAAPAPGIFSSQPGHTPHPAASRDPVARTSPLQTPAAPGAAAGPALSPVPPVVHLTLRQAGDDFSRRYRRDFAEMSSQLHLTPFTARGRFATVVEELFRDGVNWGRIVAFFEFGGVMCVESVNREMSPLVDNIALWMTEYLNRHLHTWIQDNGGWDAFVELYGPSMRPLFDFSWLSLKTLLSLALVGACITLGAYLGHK

By Kd is commonly meant a measure of binding affinity in units of concentration.

Bcl-xL (UniProt Q07817), sequence (Q07817 1-209): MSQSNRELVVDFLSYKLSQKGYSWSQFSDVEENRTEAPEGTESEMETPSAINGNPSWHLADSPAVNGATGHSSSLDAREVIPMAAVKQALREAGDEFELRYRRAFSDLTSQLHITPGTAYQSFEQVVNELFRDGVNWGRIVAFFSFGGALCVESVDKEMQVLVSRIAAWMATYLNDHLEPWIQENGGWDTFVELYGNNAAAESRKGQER
BCL2L15, sequence (chain, as listed by the source): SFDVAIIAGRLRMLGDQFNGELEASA
TSC2, sequence (chain, as listed by the source): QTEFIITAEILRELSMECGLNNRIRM
Bcl-w, sequence (Q92843 1-164 Q133R): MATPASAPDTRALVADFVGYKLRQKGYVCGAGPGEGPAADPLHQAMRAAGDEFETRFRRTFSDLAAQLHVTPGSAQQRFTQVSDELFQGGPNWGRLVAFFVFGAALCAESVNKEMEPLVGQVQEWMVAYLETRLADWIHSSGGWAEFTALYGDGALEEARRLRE
PSMB1, sequence (chain, as listed by the source): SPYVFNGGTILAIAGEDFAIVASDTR
ATP2B1, sequence (chain, as listed by the source): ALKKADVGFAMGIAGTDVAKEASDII
Bad BH3 peptide BH3, sequence (Q92934 103-127): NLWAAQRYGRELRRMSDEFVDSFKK
Bcl-xL (from UniProt Q07817-1 1-233) (natural protein), sequence (Q07817 whole entry): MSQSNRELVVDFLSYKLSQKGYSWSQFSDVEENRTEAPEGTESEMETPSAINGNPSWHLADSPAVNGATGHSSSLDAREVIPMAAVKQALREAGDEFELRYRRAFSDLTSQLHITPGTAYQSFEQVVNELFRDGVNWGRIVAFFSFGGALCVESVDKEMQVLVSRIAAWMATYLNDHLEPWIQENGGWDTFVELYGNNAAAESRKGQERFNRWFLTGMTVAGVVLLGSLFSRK
Bcl-2 (from UniProt P10415 1-239) (natural protein), sequence (P10415 whole entry): as the sequence (P10415 whole entry) above
EIF2C1, sequence (chain, as listed by the source): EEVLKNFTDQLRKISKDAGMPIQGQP
Mcl-1 (from UniProt Q07820 1-350) (natural protein), sequence (Q07820 whole entry): as the sequence (Q07820 whole entry) above
EHMT1, sequence (chain, as listed by the source): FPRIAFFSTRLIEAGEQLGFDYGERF
EIF2C3, sequence (chain, as listed by the source): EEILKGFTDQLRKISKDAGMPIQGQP
ARPC5L, sequence (chain, as listed by the source): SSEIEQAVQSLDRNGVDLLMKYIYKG
GRIN3A, sequence (chain, as listed by the source): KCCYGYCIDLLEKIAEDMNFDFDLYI
GRIN2D, sequence (chain, as listed by the source): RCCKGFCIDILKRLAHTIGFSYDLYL
PACSIN2, sequence (chain, as listed by the source): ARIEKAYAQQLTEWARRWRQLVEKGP
C7orf16, sequence (chain, as listed by the source): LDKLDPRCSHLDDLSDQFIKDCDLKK
MYO3A, sequence (chain, as listed by the source): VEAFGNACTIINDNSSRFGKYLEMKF

In the case of ARPC5, the SPOT signal as a fraction of Bim BH3's signal on the same receptor and array in experiment [1] amounted to 0.03.
On the same count and under the same terms, under ARPC5L stands 0.03.
Regarding ATP2B1, the SPOT signal as a fraction of Bim BH3's signal on the same receptor and array in experiment [2] was 0.01; in experiment [1] it was 0.02.
As to BCL2L15, the SPOT signal as a fraction of Bim BH3's signal on the same receptor and array is 0.58 in experiment [3], 0.75 in experiment [4] and 0.52 in [5].
With “Bad BH3 peptide BH3 (from UniProt Q92934)”, the equilibrium dissociation constant (Kd) in experiment [6] and in experiment [7] was > 2.5 µM in each case.
Take “Bcl-2 (from UniProt P10415 1-239) (natural protein)”: the dissociation constant (Kd) in experiment [8] was < 0.03 µM.
Turning to “Bcl-xL (from UniProt Q07817-1 1-233) (natural protein)”, the percent of the Bim BH3 SPOT signal in [9] was 11%. Moreover, in experiment [8], the dissociation constant (Kd) is < 0.03 µM.
C7orf16 registered an SPOT signal as a fraction of Bim BH3's signal on the same receptor and array in [1] of 0.02.
In turn, C9orf84 registered an SPOT signal as a fraction of Bim BH3's signal on the same receptor and array in experiment [2] of 0.02.
For CHAF1B, the SPOT signal as a fraction of Bim BH3's signal on the same receptor and array in [2] and in experiment [1] was 0.02 in each case.
Turning to CYP2A13, the SPOT signal as a fraction of Bim BH3's signal on the same receptor and array in [2] is 0.04 and 0.05; in experiment [1], 0.06 and 0.07; in experiment [5], 0.04.
EHMT1: the SPOT signal as a fraction of Bim BH3's signal on the same receptor and array in experiment [1] worked out at 0.04.
The same measure, in the same setting: under EIF2C1 stands 0.02.
On the same count and under the same terms, with EIF2C3 the figure was 0.03.
In the case of GRIN2D, the SPOT signal as a fraction of Bim BH3's signal on the same receptor and array in [2] worked out at 0.06.
The same measure, in the same setting: under GRIN3A stands 0.03.
In the case of HRK, the SPOT signal as a fraction of Bim BH3's signal on the same receptor and array was 0.56 and 0.38 in experiment [1]; 0.23 and 0.32 in experiment [5].
Turning to KIF5C, in experiment [2], the SPOT signal as a fraction of Bim BH3's signal on the same receptor and array is 0.07 and 0.16.
For MRPL41 BH3-like peptide, the Kd in [10] stood at 0.19 µM.
In experiment [2], MYO3A came in with an SPOT signal as a fraction of Bim BH3's signal on the same receptor and array of 0.13.
Consider “Mcl-1 (from UniProt Q07820 1-350) (natural protein)”, for which the Kd in [8] is < 0.03 µM.
In the case of PACSIN2, the SPOT signal as a fraction of Bim BH3's signal on the same receptor and array in [1] came to 0.24.
In the case of PSMB1, the SPOT signal as a fraction of Bim BH3's signal on the same receptor and array in experiment [2] and in [1] was 0.02 in each case.
On to RPL29, for which, in experiment [1], the SPOT signal as a fraction of Bim BH3's signal on the same receptor and array is 0.72 and 0.7.
For SYN1, the SPOT signal as a fraction of Bim BH3's signal on the same receptor and array in experiment [2] is 0.03 and 0.04; in [1], 0.1; in [5], 0.04.
Consider TAF6, for which the SPOT signal as a fraction of Bim BH3's signal on the same receptor and array in [2] came to 0.03.
For TRIO, the SPOT signal as a fraction of Bim BH3's signal on the same receptor and array is 0.04 in [2]; 0.06 in [1]; 0.04 and 0.05 in [5].
For TSC2, the SPOT signal as a fraction of Bim BH3's signal on the same receptor and array in experiment [3] was 0.03; in experiment [4], 0.01; in [2], 0.06; in experiment [1], 0.15; in experiment [5], 0.03.
Consider VPS29, for which the SPOT signal as a fraction of Bim BH3's signal on the same receptor and array is 0.02 in experiment [2]; 0.02 and 0.01 in experiment [1].
